Earlier results on 1 substance are cited in paper doi:10.1101/2021.01.30.427993.

In general, pKa refers to the pH at which an ionisable group is half protonated.

For this series, the system named is Glu165. The settings on record: not stated ('in the active site').

For the substance Triosephosphate isomerase (TIM), the pKa is listed as 3.9.
